The text below walks through data of US5180667A, “Genes encoding eglin C mutants” (Ciba-Geigy Corporation, priority 1988, dated 1993).

The target of the experiment is trypsin. The experiment is described as follows: Inhibition constant Ki, steady-state release of p-nitroaniline, trypsin. The following applies: only inhibitor concentration varied. In kind it is biochemical. Here is the method: The determination of the inhibition constants Ki is carried out according to N. Braun et al. [Biol. Chem. Hoppe-Seyler 368, 299-308 (1987)] by measuring the steady-state reaction rate of the release of p-nitroaniline from proteinase-inhibitor substrate mixtures. Only the inhibitor concentration is varied. Since the curve OD405 vs. time was linear, the release of p-nitroaniline is entered at 10 to 20 minutes. Ki can be determined from the various slopes. The proteinases used are human leukocyte elastase (HLE), chymotrypsin and trypsin.

B1: Eglin C (protein, UniProt P01051 1-70, looked up)
Eglin C: TEFGSELKSFPEVVGKTVDQAREYFTLHYPQYDVYFLPEGSPVTLDLRYNRVRVFYNPGTNVVNHVPHVG
On to B1, for which the “Inhibition constants, trypsin Ki (M)” value is recorded as “no inhibition”.
